B1: G1H12 Fab (Anti HLA-DR4/GAD555-567 Fab) (Fab, V domains shown)
VH: QVQLVQSGAEVKKPGASVKVSCKASGYTFTSYGISWVRQAPGQGLEWMGGIIPIFGTANYAQKFQGRVTITADKSTSTAYMELSSLRSEDTAVYYCARDPQSYYYDSSGFDYWGQGTLVTVSS
VL: QSVLTQPPSVSAAPGQKVTISCSGSSSNIGNNYVSWYQQLPGTAPKLLIYDNNKRPSGIPDRFSGSKSGTSATLGITGLQTGDEADYYCGTWDSSLSVWVFGGGTKLTVLG
B2: G3H8 Fab (Anti HLA-DR4/GAD555-567 Fab) (Fab, V domains shown)
VH: QVQLVQSGAEVKKPGASVKVSCKASGYTFTTYGISWVRQAPGQGLEWMGWISAYNGHTNYAQMLQGRVTMTTDTSTSTAYMELRGLRSDDTAVYYCAREAYASYGSGSYWTDYWGQGTLVTVSS
VL: ETTLTQSPATLSVSPGERVTLSCRASQSVGSNLAWYQQKFGQAPRLLIYDASTRATGIPARFSGSGSGTEFTLTISRLEPEDFAVYYCHQYGSSPRTFGQGTKVDIKR
notes: also called Fab G3H8; G3H8 TCRL Fab

Columns and labels:
[1] = molecular target: DR4/HA307-319 complex presented on cells (human, UniProt P01903 26-254; P01911 30-266); experiment: flow cytometry on peptide-loaded Preiss cells
[2] = molecular target: HA307-319 peptide ([…]), alone; experiment: ELISA, immobilized peptide

Binder | binding result [1] | binding result [2]
B1 | no binding (tested: 1-5 µg of specific Fab per 10^6 cells) | no binding (tested: 5 µg/ml soluble purified Fab)
B2 | no binding (tested: 1-5 µg of specific Fab per 10^6 cells) | no binding (tested: 5 µg/ml soluble purified Fab)

Source: patent US20130189284A1 (TECHNION RESEARCH AND DEVELOPMENT FOUNDATION, published 2013)
